Changes are numbered by the printed parent chain.
B1: vandortuzumab (antibody, V domains shown)
VH: EVQLVESGGGLVQPGGSLRLSCAVSGYSITSDYAWNWVRQAPGKGLEWVGYISNSGSTSYNPSLKSRFTISRDTSKNTLYLQMNSLRAEDTAVYYCARERNYDYDDYYYAMDYWGQGTLVTVSS
VL: DIQMTQSPSSLSASVGDRVTITCKSSQSLLYRSNQKNYLAWYQQKPGKAPKLLIYWASTRESGVPSRFSGSGSGTDFTLTISSLQPEDFATYYCQQYYNYPRTFGQGTKVEIK
B2: Molecule A: 2+1 IgG CrossFab inverted anti-STEAP1/anti-CD3 T cell bispecific (TCB) antibody with the vandortuzumab variable domains (bispecific antibody)
heavy 1: EVQLVESGGGLVQPGGSLRLSCAVSGYSITSDYAWNWVRQAPGKGLEWVGYISNSGSTSYNPSLKSRFTISRDTSKNTLYLQMNSLRAEDTAVYYCARERNYDYDDYYYAMDYWGQGTLVTVSSASTKGPSVFPLAPSSKSTSGGTAALGCLVEDYFPEPVTVSWNSGALTSGVHTFPAVLQSSGLYSLSSVVTVPSSSLGTQTYICNVNHKPSNTKVDEKVEPKSCDKTHTCPPCPAPEAAGGPSVFLFPPKPKDTLMISRTPEVTCVVVDVSHEDPEVKFNWYVDGVEVHNAKTKPREEQYNSTYRVVSVLTVLHQDWLNGKEYKCKVSNKALGAPIEKTISKAKGQPREPQVCTLPPSRDELTKNQVSLSCAVKGFYPSDIAVEWESNGQPENNYKTTPPVLDSDGSFFLVSKLTVDKSRWQQGNVFSCSVMHEALHNHYTQKSLSLSP
heavy 2: not shown
light 1: DIQMTQSPSSLSASVGDRVTITCKSSQSLLYRSNQKNYLAWYQQKPGKAPKLLIYWASTRESGVPSRFSGSGSGTDFTLTISSLQPEDFATYYCQQYYNYPRTFGQGTKVEIKRTVAAPSVFIFPPSDRKLKSGTASVVCLLNNFYPREAKVQWKVDNALQSGNSQESVTEQDSKDSTYSLSSTLTLSKADYEKHKVYACEVTHQGLSSPVTKSFNRGEC
light 2: EVQLLESGGGLVQPGGSLRLSCAASGFTFSTYAMNWVRQAPGKGLEWVSRIRSKYNNYATYYADSVKGRFTISRDDSKNTLYLQMNSLRAEDTAVYYCVRHGNFGNSYVSWFAYWGQGTLVTVSSASVAAPSVFIFPPSDEQLKSGTASVVCLLNNFYPREAKVQWKVDNALQSGNSQESVTEQDSKDSTYSLSSTLTLSKADYEKHKVYACEVTHQGLSSPVTKSFNRGEC
notes: Two STEAP1 Fabs (charge modifications EE/RK) and one CD3 CrossFab (VH/VL exchange), human IgG1 Fc with knob-into-hole and PGLALA; also called STEAP-1 TCB antibody
B3: Molecule B: 2+1 IgG CrossFab inverted anti-STEAP1/anti-CD3 TCB antibody, D100aE mutation in both STEAP1 binding moieties (bispecific antibody)
heavy 1: B2 heavy 1 with D105E
heavy 2: not shown
light 1: B2 light 1
light 2: B2 light 2
notes: Same format as Molecule A; also called STEAP-1 TCB antibody variant (ED)
B4: Molecule C: 2+1 IgG CrossFab inverted anti-STEAP1/anti-CD3 TCB antibody, D100bE mutation in both STEAP1 binding moieties (bispecific antibody)
heavy 1: B2 heavy 1 with D106E
heavy 2: not shown
light 1: B2 light 1
light 2: B2 light 2
notes: Same format as Molecule A; also called STEAP-1 TCB antibody variant (DE)
B5: Molecule D: 2+1 IgG CrossFab inverted anti-STEAP1/anti-CD3 TCB antibody, D100aE/D100bE mutations in both STEAP1 binding moieties (bispecific antibody)
heavy 1: B2 heavy 1 with D105E, D106E
heavy 2: not shown
light 1: B2 light 1
light 2: B2 light 2
notes: Same format as Molecule A; also called STEAP-1 TCB antibody variant (EE)

Key:
[1] = target: T1, human STEAP-1 (six-transmembrane epithelial antigen of prostate 1) (human, UniProt Q9UHE8 1-339); assay: flow cytometry on CHO-K1 cells stably transfected with full-length human STEAP1, PerCP anti-human IgG secondary
T1 construct: Full-length human STEAP1 stably expressed on CHO-K1 cells (CHO-hSTEAP1); endogenous on LnCAP and 22Rv1 cells in the functional assays; also called hSTEAP-1
T1 sequence (Q9UHE8 whole entry): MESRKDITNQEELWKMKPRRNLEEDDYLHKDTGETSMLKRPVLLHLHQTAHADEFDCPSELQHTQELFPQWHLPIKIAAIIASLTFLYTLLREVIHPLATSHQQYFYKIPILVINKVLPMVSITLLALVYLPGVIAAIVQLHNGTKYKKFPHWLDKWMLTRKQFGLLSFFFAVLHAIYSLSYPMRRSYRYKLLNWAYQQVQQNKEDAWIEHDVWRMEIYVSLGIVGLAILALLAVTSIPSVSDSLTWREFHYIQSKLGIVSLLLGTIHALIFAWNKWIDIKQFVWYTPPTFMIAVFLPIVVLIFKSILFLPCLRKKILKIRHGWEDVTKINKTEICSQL
Excerpt: A gene encoding full-length human STEAP1 was subcloned into mammalian expression vector. The plasmid was transfected into CHO-K1 (ATCC CRL-9618) cells using Lipofectamine LTX Reagent according to the manufacturer's protocol (Invitrogen, #15338100). Stably transfected STEAP1-positive CHO cells were maintained in DMEM/F-12 medium (Gibco, #11320033) supplemented with 10% fetal bovine serum (Gibco, #16140063) and 1% GlutaMAX Supplement (Gibco; #31331-028). Two days after transfection, puromycin (Invivogen; #ant-pr-1) was added to 6 μg/mL and the cells were cultured for several passages. After initial selection, the cells with the highest cell surface expression of STEAP1 were sorted by BD FACSAria II cell sorter (BD Biosciences) and cultured to establish stable cell clones. The expression level and stability was confirmed by FACS analysis using vandortuzumab and PerCP-conjugated Fc gamma-specific goat anti-human IgG (Jackson ImmunoResearch, #109-126-097) as secondary antibody over a period of 4 weeks.

[2] = target: FcRn (neonatal Fc receptor); assay: FcRn affinity chromatography, pH gradient elution; retention time compared to protein standards with known affinities
FcRn (neonatal Fc receptor), sequence (P55899 24-297, chain 1 of 2): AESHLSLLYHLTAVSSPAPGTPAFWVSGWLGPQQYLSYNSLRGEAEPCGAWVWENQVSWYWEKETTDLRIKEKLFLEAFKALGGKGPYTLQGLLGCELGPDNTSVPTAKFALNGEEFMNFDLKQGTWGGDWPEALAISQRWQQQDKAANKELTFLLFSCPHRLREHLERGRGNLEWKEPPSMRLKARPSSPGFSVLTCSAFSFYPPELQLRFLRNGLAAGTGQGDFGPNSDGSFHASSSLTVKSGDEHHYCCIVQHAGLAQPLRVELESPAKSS
FcRn (neonatal Fc receptor), sequence (P61769 21-119, chain 2 of 2, further chain): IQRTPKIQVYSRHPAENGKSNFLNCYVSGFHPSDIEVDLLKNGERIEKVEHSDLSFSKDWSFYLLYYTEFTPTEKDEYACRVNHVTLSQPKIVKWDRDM
Procedure: FcRn was expressed, purified and biotinylated as described (Schlothauer et al., MAbs (2013) 5(4), 576-86). For coupling, the prepared receptor was added to streptavidin-sepharose (GE Healthcare). The resulting FcRn-sepharose matrix was packed in a column housing. The column was equilibrated with 20 mM 2-(N-morpholine)-ethanesulfonic acid (MES), 140 mM NaCl, pH 5.5 (eluent A) at a 0.5 ml/min flow rate. 30 μg of antibody samples were diluted at a volume ratio of 1:1 with eluent A and applied to the FcRn column. The column was washed with 5 column volumes of eluent A followed by elution with a linear gradient from 20 to 100% 20 mM Tris/HCl, 140 mM NaCl, pH 8.8 (eluent B) in 35 column volumes. The analysis was performed with a column oven at 25° C. The elution profile was monitored by continuous measurement of the absorbance at 280 nm. Retention times were compared to protein standards with known affinities.

[3] = target: T1, human STEAP-1 (six-transmembrane …); assay: cell-based ELISA on CHO-K1 cells stably expressing human STEAP1; binding EC50 of the stressed sample against the untreated sample x100
Procedure: Characterization of Binding Potency After Stress Using a Cell-Based ELISA To quantify the reduction in binding potency caused by 1-4 weeks stress at either pH 7.4 or 6.0, a cell-based ELISA was employed using CHO-K1 cells stably expressing human STEAP1. For this cell-based ELISA, 10,000 cells were seeded per well of a 96-well plate and incubated for 18 h at 37° C., 5% CO₂. Supernatant was removed using an automated washer (BIOTEK), and 100 μl of a dilution series (10 pM-30 nM) of antibody constructs in growth medium was added to each well. After 1 h of incubation at 4° C., wells were emptied and 100 μl of 0.05% glutaraldehyde in PBS added for 10 min at RT. After 4 washes with PBS/0.025% Tween20 (PBST), 100 μl of anti-human-IgG-HRP (Jackson) diluted 1:20000 in Blocking buffer (Roche) was added and plates incubated for 1 h at room temperature (RT). Wells were washed 6 times with PBST and signal was generated using 100 μl of TMB per well, the reaction stopped after 10 minutes with 50 μl 1 M HCl and absorbance measured at 450 nm. Data (Table 4) were expressed as “% binding”, dividing the binding EC50 of the stressed sample by that of the untreated sample multiplied by 100.

| Binder | binding result [1] | FcRn affinity [2] | Relative binding potency (%) (after 28 days at 40° C., pH 6) [3] |
| --- | --- | --- | --- |
| B1 | binds | – | – |
| B2 | – | 0.61 | 66 |
| B3 | – | 0.69 | 79 |
| B4 | – | – | 69 |
| B5 | – | 0.65 | 100 |

Source: patent publication US20240279355A1 (Hoffmann-La Roche, published 2024)
